Test results reported in patent publication US20230374148A1, “BINDING MOLECULES THAT MULTIMERISE CD45” (UCB BIOPHARMA SRL, priority 2020, published 2023).

Experiments:
M2 macrophages = experiment: Caspase-3/7 induction, IncuCyte, M2; assay type: cell-based, human; details: over 6 days, BYbe 250-2 nM, Camptothecin, Staurosporine 5 μM
Procedure: Human PBMC derived from blood leukocyte platelet-apheresis cones (NHSBT Oxford) were banked as frozen aliquots. Prior to an assay being performed, 2 vials of frozen cells, each containing 5×10^7 cells in 1 ml, were thawed in a 37° C. water bath and then added to 50 ml complete media (RPMI 1640+2 mM GlutaMAX+1% Pen/Strep, all previous supplied by Invitrogen, +10% Fetal Bovine Serum (FBS), Sigma Aldrich). Cells were spun (500 g, 5 min, at RT) and re-suspended in 30 ml complete media to wash and spun again. Cells were resuspended in 20 ml MACS buffer (PBS, pH 7.2, 0.5% bovine serum albumin (BSA), and 2 mM EDTA, Sigma Aldrich) and counted on a ChemoMetec NucleoCounter NC-3000 to determine concentration and viability. PBMCs from one donor (UCB-Cones 802) was used in this assay. Monocyte isolation was performed using the Pan Monocyte Isolation Kit (Miltenyi Biotec, cat no. 130-096-537) and LS columns (Miltenyi Biotec, cat no 130-042-401) according to manufacturer's instructions. 100 μl of cells were removed and stored on ice to check monocyte purity post isolation. Isolated cells were stained with BV421 mouse anti-human CD14 (BD Biosciences, cat no. 563743) to check for purity of monocytes using FACS. M-CSF (Sigma Aldrich, cat no. SRP3110) and GM-CSF (R&D Systems, cat no. 215-GM/CF) were prepared at 100 μg/ml. Cells were prepared in M1 media (complete media+50 ng/ml GM-CSF) or M2 media (complete media+50 ng/ml M-CSF) at a concentration of 2.5×10^5 cells/ml. 200 μl cells were plated into two Corning 96 well Black polystyrene microplates (Sigma Aldrich) and incubated at 37° C., 5% CO2. Following a 3-day incubation at 37° C., 5% CO2, the plate was spun (500 g, 5 min, RT), buffer was aspirated, the cells were washed once with PBS and then resuspended in 200 μL of M1 media or M2 media. […] The caspase dye was measured with the green laser (350 ms) and the cytotox dye was measured with a red laser (650 ms). The green dye signal was analysed using Incucyte® Zoom2016B. […]

CD45 ECD = biological target: T1, CD45 ECD (Homo sapiens, UniProt P08575); experiment: Mass photometry of mixture of CD45 ECD and BYbe; assay type: binding; details: for Theoretical mass (kDa): based on observed masses of 62 and 76 kDa
T1 construct: extracellular domain of CD45 (UniProtKB—P08575, residue positions 225-573); TEV cleavage site (C); 10-His tag (C); made in house; host or cells: HEK293
T1 sequence (P08575 225-573): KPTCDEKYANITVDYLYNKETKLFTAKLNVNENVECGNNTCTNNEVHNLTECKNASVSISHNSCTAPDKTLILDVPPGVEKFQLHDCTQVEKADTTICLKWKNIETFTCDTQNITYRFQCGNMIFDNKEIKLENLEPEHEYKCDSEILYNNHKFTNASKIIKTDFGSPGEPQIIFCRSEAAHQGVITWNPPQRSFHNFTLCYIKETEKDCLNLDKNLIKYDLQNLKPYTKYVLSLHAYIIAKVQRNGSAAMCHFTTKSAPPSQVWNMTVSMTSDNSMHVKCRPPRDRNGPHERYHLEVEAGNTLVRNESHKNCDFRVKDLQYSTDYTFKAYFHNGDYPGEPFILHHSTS
Procedure: Data were acquired on a RefeynOneMP mass photometer (Refeyn Ltd, Oxford, UK) using AcquireMP (Refeyn Ltd, v2.2.1) software and images were processed and analysed using DiscoverMP (v2.3.dev12) software.
Measurements were performed using clean glass coverslips (High Precision coverslips, No. 1.5, 24×50 mm, Marienfeld) mounted with silicon gaskets (CultureWell™ Reusable Gaskets, Grace biolabs) cut in to 2×2 well sections. Protein stocks were diluted directly in Dulbecco's Phosphate-Buffered Saline (DPBS, ThermoFisher). Typical working concentrations of protein complexes were 1-100 nM, depending on the dissociation characteristics of the protein complexes.
The instrument lens was cleaned with Iso-propyl alcohol (IPA), allowed to dry and a drop of Olympus Low Auto Fluorescence Immersion Oil (NC0297589, ThermoFisher) placed on the lens prior to positioning the microscope coverslip with sample in the light stage. To find focus, 15 μl of fresh DPBS was pipetted into a silicone well, the focal position was identified and secured in place with an autofocus system based on total internal reflection for the entire measurement. For each acquisition, 5 μl of diluted protein was introduced into the well, mixed thoroughly (before autofocus stabilization), and movies of 90 s duration recorded. Each sample was measured once, with a new well and buffer used for each measurement. The mixture of CD45 ECD and 4133-6294 BYbe was not pre-incubated and therefore complexing occurred when the 2 proteins were added into the well.

Observed mass (kDa) (CD45 ECD; 1× (CD45 + BYbe) complex in mixture of CD45 ECD and 4133-6294 BYbe): 136 kDa
Theoretical mass (kDa) (CD45 ECD; 1× (CD45 + BYbe)): 138 kDa
Observed mass (kDa) (CD45 ECD; 2× (CD45 + BYbe) complex in mixture of CD45 ECD and 4133-6294 BYbe): 274 kDa
Theoretical mass (kDa) (CD45 ECD; 2× (CD45 + BYbe)): 276 kDa
Observed mass (kDa) (CD45 ECD; 3× (CD45 + BYbe) complex in mixture of CD45 ECD and 4133-6294 BYbe): 415 kDa
Theoretical mass (kDa) (CD45 ECD; 3× (CD45 + BYbe)): 414 kDa
Observed mass (kDa) (CD45 ECD; 4× (CD45 + BYbe) complex in mixture of CD45 ECD and 4133-6294 BYbe): 555 kDa
Theoretical mass (kDa) (CD45 ECD; 4× (CD45 + BYbe)): 552 kDa
B1: 4133-6294 BYbe: anti-CD45 BYbe (Fab-scFv): 4133 Fab HC-G4S linker-6294 scFv heavy chain paired with 4133 light chain (antibody)
heavy: QEQLVESGGGLVQPEGSLTLTCTASGFSFSGNYYMCWVRQAPGKGLEWIGCLYTGSSGSTYYASWAKGRFTISKTSSTTVTLQMTSLTAADTATYFCARDLGYEIDGYGGLWGQGTLVTVSSGQPKAPSVFPLAPCCGDTPSSTVTLGCLVKGYLPEPVTVTWNSGTLTNGVRTFPSVRQSSGLYSLSSVVSVTSSSQPVTCNVAHPATNTKVDKTVAPSTCSKPGGGGSGGGGSEVQLVESGAELARPGASVKMSCKASGYTFTSYTMHWVKQRPGQCLEWIGYINPSSGYTEYNQKFKDKTTLTADKSSSTAYLQLSSLTSEDSAVYYCARVGDGFYPSWLAYWGQGTLVTVSSGGGGSGGGGSGGGGSGGGGSDIQMTQSPKFLLVSAGDRVTITCKASQSVRNDVAWYQQKPGQSPKLLIFYASKRYTGVPDRFTGSGYGTDFTFTISTVQAEDLAVYFCQQDYSSPTTFGCGTKLEIK
light: AQVLTQTPSPVSAVVGGTVSISCQASQSVYNNNNLSWYQQKPGQPPKLLIYDASKLASGVPSRFKGSGSGTQFTLTISGVQCDDAATYYCLGGYYSSGWYFAFGGGTKVVVKRTPVAPTVLIFPPAADQVATGTVTIVCVANKYFPDVTVTWEVDGTTQTTGIENSKTPQNSADCTYNLSSTLTLTSTQYNSHKEYTCKVTQGTTSVVQSFNRGDC
levels of Caspase-3/7 (M2 macrophages): in-line with NegCtrl BYbe-treated and untreated macrophages
